The values that follow come from PMC10372164 (Molecular Therapy. Nucleic Acids, 2023).

The data set deals with the molecule itself. The experiment in a line: SEC. (In general: Size exclusion chromatography separates by hydrodynamic size, large species first.)

B1: human ornithine transcarbamylase labeled with 3x FLAG at the C-terminus (enzyme, UniProt P00480 33-354, looked up)
chain: NKVQLKGRDLLTLKNFTGEEIKYMLWLSADLKFRIKQKGEYLPLLQGKSLGMIFEKRSTRTRLSTETGFALLGGHPCFLTTQDIHLGVNESLTDTARVLSSMADAVLARVYKQSDLDTLAKEASIPIINGLSDLYHPIQILADYLTLQEHYSSLKGLTLSWIGDGNNILHSIMMSAAKFGMHLQAATPKGYEPDASVTKLAEQYAKENGTKLLLTNDPLEAAHGGNVLITDTWISMGQEEEKKKRLQAFQGYQVTMKTAKVAASDWTFLHCLPRKPEEVDDEVFYSPRSLVFPEAENRKWTIMAVMVSLLTDYSPQLQKPKF
Consider B1, for which the stoichiometry N (usually a count of units in the complex or per binding partner) came out at 3.
